Data: article PMC9578707, “Identification of orphan ligand-receptor relationships using a cell-based CRISPRa enrichment screening platform” (eLife, 2022)

Experiments:
ROR1 and MFRP = experiment: SPR; Biacore T100; biotinylated receptor ECD or hit protein captured on a streptavidin chip (~100-200 RU), non-biotinylated secreted ligand as analyte in twofold dilutions; HBS-P+ buffer; 1:1 Langmuir model or equilibrium fit
MFRP-ECD = biological target: T1, MFRP-ECD (human, UniProt Q9BY79 91-579, biotin (captured on the streptavidin chip)); experiment: as above; details: both partners purified
T1 construct: membrane Frizzled-related protein, human, extracellular domain; construct of the ECD is not described; also called membrane Frizzled (FZD)-related protein; source: Expi293F, purified (Ni-NTA, SEC)
T1 sequence (looked up): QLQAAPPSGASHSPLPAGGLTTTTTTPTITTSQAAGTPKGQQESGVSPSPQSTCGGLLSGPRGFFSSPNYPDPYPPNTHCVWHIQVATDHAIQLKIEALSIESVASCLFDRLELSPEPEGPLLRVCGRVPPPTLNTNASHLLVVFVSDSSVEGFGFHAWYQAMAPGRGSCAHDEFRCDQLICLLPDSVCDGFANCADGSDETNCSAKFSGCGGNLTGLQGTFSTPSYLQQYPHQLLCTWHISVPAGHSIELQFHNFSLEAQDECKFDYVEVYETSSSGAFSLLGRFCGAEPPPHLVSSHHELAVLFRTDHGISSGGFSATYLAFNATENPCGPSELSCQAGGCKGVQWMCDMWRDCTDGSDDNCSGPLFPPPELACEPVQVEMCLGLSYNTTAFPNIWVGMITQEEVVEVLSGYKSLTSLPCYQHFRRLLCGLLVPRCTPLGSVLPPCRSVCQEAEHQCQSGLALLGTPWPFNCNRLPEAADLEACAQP

ROR1-ECD = biological target: T2, ROR1-ECD (human, UniProt Q01973 30-406, biotin (captured on the streptavidin chip)); experiment: as above; details: both partners purified
T2 construct: ROR1, human, extracellular domain; construct of the ECD is not described; source: Expi293F, purified (Ni-NTA, SEC)

[1] = biological target: T3, MFRP-ECD (membrane Frizzled-related protein, extracellular domain) (human, UniProt Q9BY79 91-579, biotin (BirA biotinylation; captured on streptavidin chip)); experiment: SPR; Biacore T100; biotinylated ligand captured on a streptavidin (SA) Series S chip (~100-200 RU); non-biotinylated analyte in twofold dilutions in HBS-P+; 60 s injection at 30 ul/min, 240 s dissociation; regeneration 2 x 10 sec 2M MgCl2; KD from the fit at equilibrium (steady state); details: both partners purified
T3 construct: membrane Frizzled-related protein (MFRP), human, extracellular domain; source: Expi293F, purified (Ni-NTA, SEC), biotinylated in vitro with BirA
T3 sequence (looked up): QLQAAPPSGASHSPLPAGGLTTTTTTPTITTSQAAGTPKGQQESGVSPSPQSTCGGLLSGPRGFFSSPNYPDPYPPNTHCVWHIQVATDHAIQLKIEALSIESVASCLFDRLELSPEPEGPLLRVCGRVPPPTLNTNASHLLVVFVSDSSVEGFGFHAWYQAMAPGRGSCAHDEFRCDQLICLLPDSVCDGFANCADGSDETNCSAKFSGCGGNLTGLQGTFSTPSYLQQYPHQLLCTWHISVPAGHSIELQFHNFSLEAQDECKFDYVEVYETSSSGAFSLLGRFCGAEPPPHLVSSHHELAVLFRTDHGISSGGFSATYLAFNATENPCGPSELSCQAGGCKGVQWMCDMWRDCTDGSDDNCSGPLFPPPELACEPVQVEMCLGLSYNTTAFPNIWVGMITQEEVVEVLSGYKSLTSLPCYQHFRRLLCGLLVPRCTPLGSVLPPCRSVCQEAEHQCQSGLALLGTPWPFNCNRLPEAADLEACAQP

[2] = biological target: T4, ROR1-ECD (transmembrane receptor tyrosine kinase ROR1, extracellular domain) (human, UniProt Q01973 30-406, biotin (BirA biotinylation; captured on streptavidin chip)); experiment: as above; details: both partners purified
T4 construct: receptor tyrosine kinase ROR1, human, extracellular domain; source: Expi293F, purified (Ni-NTA, SEC), biotinylated in vitro with BirA

[3] = biological target: T5, growth arrest specific 1 protein (GAS1) (human, UniProt P54826 40-317); experiment: as above; details: both partners purified
T5 construct: growth arrest specific 1 (GAS1), human; source: Expi293F, purified (Ni-NTA, SEC), not biotinylated (SPR analyte)
T5 sequence (looked up): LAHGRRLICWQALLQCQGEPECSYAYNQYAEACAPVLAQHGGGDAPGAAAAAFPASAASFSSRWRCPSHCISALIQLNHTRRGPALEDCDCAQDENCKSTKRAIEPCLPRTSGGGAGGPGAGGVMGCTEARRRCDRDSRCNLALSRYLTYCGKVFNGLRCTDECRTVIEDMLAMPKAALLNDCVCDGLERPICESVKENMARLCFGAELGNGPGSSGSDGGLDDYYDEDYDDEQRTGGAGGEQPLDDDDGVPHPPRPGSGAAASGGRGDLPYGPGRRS

[4] = biological target: the molecule itself; experiment: SPR; Biacore T100; biotinylated receptor ECD or hit protein captured on a streptavidin chip (~100-200 RU), non-biotinylated secreted ligand as analyte in twofold dilutions; HBS-P+ buffer; 1:1 Langmuir model or equilibrium fit

B1: pleiotrophin (ligand, human, UniProt P21246 33-168, looked up)
chain: GKKEKPEKKVKKSDCGEWQWSVCVPTSGDCGLGTREGTRTGAECKQTMKTQRCKIPCNWKKQFGAECKYQFQAWGECDLNTALKTRTGSLKRALHNAECQKTVTISKPCGKLTKPKPQAESKKKKKEGKKQEKMLD
modifications: biotin (biotinylated in vitro with BirA) where used on beads or captured on the chip
notes: pleiotrophin, human; also called PTN; source: Expi293F, purified (Ni-NTA, SEC); not shown: AviTag, C-terminal, kept
Kd (ROR1 and MFRP): 1000 to 2000 nM | binding result (MFRP-ECD): binds | binding result (ROR1-ECD): binds

B2: pleiotrophin (PTN) (ligand, human, UniProt P21246 33-168, looked up)
chain: GKKEKPEKKVKKSDCGEWQWSVCVPTSGDCGLGTREGTRTGAECKQTMKTQRCKIPCNWKKQFGAECKYQFQAWGECDLNTALKTRTGSLKRALHNAECQKTVTISKPCGKLTKPKPQAESKKKKKEGKKQEKMLD
notes: pleiotrophin (PTN), human; source: Expi293F, purified (Ni-NTA, SEC), not biotinylated (SPR analyte)
Kd [1]: 1220 nM | Kd [2]: 1660 nM

B3: PTPRA-ECD (receptor protein tyrosine phosphatase alpha, extracellular domain) (domain or fragment, human, UniProt P18433 20-151, looked up)
chain: NNATTVAPSVGITRLINSSTAEPVKEEAKTSNPTSSLTSLSVAPTFSPNITLGPTYLTTVNSSDSDNGTTRTASTNSIGITISPNGTWLPDNQFTDARTEPWEGNSSTAATTPETFPPSGNSDSKDRRDETP
modifications: biotin (BirA biotinylation; captured on streptavidin chip)
notes: receptor-type protein tyrosine phosphatase alpha (PTPRA, R4 subfamily), human, extracellular domain; source: Expi293F, purified (Ni-NTA, SEC), biotinylated in vitro with BirA
Kd [3]: 1130 nM

B4: SMOC1 (ligand, human, UniProt Q9H4F8 27-434, looked up)
chain: HRTTGPRFLISDRDPQCNLHCSRTQPKPICASDGRSYESMCEYQRAKCRDPTLGVVHRGRCKDAGQSKCRLERAQALEQAKKPQEAVFVPECGEDGSFTQVQCHTYTGYCWCVTPDGKPISGSSVQNKTPVCSGSVTDKPLSQGNSGRKDDGSKPTPTMETQPVFDGDEITAPTLWIKHLVIKDSKLNNTNIRNSEKVYSCDQERQSALEEAQQNPREGIVIPECAPGGLYKPVQCHQSTGYCWCVLVDTGRPLPGTSTRYVMPSCESDARAKTTEADDPFKDRELPGCPEGKKMEFITSLLDALTTDMVQAINSAAPTGGGRFSEPDPSHTLEERVVHWYFSQLDSNSSNDINKREMKPFKRYVKKKAKPKKCARRFTDYCDLNKDKVISLPELKGCLGVSKEGRLV
modifications: biotin (biotinylated in vitro with BirA) where used on beads or captured on the chip
notes: SMOC1, human; also called SPARC-related ligand; source: Expi293F, purified (Ni-NTA, SEC); not shown: AviTag, C-terminal, kept
binding result [4]: binds
